Assay results from US20150368299A1.

Biological target: Aβ(1-40) monomer in 0.1% NaOH (human)
Assay: dot blot with densitometry; Aβ form dotted on nitrocellulose in serial dilution, antibody 0.2 µg/ml; higher value = weaker recognition

Aβ(1-40) monomer in 0.1% NaOH (human), sequence (peptide, as listed by the source): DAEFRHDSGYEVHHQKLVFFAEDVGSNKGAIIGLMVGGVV

B1: murine monoclonal anti-Aβ(20-42) globulomer antibody m4C9 (antibody, V domains shown)
VH: QVQLQQPGAELVKPGASVKLSCKAPGYTFTSYWMHWVKQRPGQGLEWIGRIDPKSGDTKYTEKFKSKATLTVDKPSSTAYMQLSSLTSEDSAVYYCTTMSKLSGTHAWFAYWGQGTLVTVSA
VL: DIKMTQSPSSMYASLGERVTITCKASQDINSYLTWFQQKPGKSPKTLIYRANRLVDGVPSRFSGSGSGQDYSLTISSLEYEDMGIYYCLQYDEFPLTFGAGTKLELK
B1 showed a dot blot relation of recognition of Aβ(20-42) globulomer to recognition of this Aβ form of 110000.
